From US20220289843A1 (ELPIS BIOPHARMACEUTICALS, published 2022)

T1: endogenous CD19 expressed on cell surface (Daudi cells, Raji cells, DLBCL tissue) (UniProt P15391 20-556, limits assumed)
T1 construct: whole, on cells; also called CD19+ Raji cells; CD19-positive DLBCL tissue
T1 sequence (looked up): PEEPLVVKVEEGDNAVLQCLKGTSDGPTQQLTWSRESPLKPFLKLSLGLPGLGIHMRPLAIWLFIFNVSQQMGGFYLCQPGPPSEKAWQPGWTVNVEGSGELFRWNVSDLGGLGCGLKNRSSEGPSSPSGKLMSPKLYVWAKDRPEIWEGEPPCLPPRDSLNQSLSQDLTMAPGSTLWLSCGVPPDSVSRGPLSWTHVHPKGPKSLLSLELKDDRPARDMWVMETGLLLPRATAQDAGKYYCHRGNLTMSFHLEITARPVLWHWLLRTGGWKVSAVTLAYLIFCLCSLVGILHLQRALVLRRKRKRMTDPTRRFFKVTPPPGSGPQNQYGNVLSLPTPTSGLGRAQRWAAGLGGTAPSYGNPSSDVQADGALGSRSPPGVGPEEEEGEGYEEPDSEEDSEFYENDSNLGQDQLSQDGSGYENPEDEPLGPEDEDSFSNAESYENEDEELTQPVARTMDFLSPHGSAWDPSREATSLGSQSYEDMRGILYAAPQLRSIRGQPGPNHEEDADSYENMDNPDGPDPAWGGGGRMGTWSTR

T2: full-length human CD19 fused with flag and Myc tags at the C-terminus, expressed on HEK293 or K562 cells (human, UniProt P15391 20-556)
T2 construct: whole, on cells; also called CD19/HEK293 cells; CD19-expressing HEK293 cells; not shown: C-terminal flag and Myc tags (pCMV6-Entry vector)
T2 sequence (looked up): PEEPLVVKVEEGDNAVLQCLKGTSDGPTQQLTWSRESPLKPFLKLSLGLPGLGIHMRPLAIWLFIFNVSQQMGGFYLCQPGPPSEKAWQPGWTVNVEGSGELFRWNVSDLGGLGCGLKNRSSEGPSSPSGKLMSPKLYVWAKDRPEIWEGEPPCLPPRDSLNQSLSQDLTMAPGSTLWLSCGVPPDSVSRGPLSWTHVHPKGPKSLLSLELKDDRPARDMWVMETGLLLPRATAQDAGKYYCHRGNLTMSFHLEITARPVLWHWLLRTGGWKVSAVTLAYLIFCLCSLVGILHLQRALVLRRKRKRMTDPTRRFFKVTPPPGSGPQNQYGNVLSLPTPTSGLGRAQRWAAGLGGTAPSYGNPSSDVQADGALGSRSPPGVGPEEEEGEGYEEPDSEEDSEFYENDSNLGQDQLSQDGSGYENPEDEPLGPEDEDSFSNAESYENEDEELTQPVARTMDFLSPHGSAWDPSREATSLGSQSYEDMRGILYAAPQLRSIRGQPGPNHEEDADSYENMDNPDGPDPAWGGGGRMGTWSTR


Experiments:
[1] = target: endogenous CD19 expressed on cell surface (Daudi cells, Raji cells, DLBCL tissue) (UniProt P15391); assay: FACS on Raji cells, secondary reagent alone (background)
[2] = target: T1, endogenous CD19 expressed on cell …; assay: FACS on CD19+ Raji cells, BiTE serially diluted from 200 nM
Method: (§1) A solution containing 200 nM of purified anti-CD19/CD3 BiTE antibodies were serial diluted in full medium and incubated with Raji cells in 96 wells plate on ice for one hour. Cells were spun down at 1200 rpm for 5 minutes at 4° C. to remove primary antibodies. Cells were then washed once with 200 uL of full medium per well. Samples were detected with premixed anti-His Biotin Streptavidin Alexa fluor 647 by adding 100 uL of diluted secondary antibody and incubated at 4° C. for 30 minutes in the dark. Samples were spun down at 1200 rpm for 5 minutes at 4° C. and washed twice with 200 uL of 1×PBS per well. Reconstituted samples in 200 uL of 1× PBS and read on Attune NxT cytometer. Analysis was done by Attune NxT software plotting the overlay histogram of CD19 or CD3 binding with secondary antibodies.

human CD3ε/Fc = target: T3, human CD3ε/Fc (human, UniProt P07766 23-126, limits assumed); assay: ELISA, human CD3ε/Fc immobilised, BiTE serially diluted
T3 construct: Immobilised on the ELISA plate at 2 ug/mL; not shown: Fc
Method: Further, an ELISA assay was developed to determine the EC50 of anti-CD19/CD3 BiTE antibodies. Briefly, 384 well plate was immobilized with human CD3ε/Fc at final concentration of 2 μg/mL in 1×PBS in total volume of 25 uL per well. The plate was incubated overnight at 4° C. followed by blocking with 80 uL of superblock per well for 1 hour. Anti-CD19/CD3 BiTE proteins were serial diluted, and 25 μL was added to CD3ε immobilized wells and incubated for 1 hour with shaking. The CD3ε binding was detected by adding 25 μL of anti-Flag HRP diluted at 1:5000 in 1×PBST. In between each step, the plate was washed 3 times with 1×PBST in a plate washer. The plate was then developed with 20 μL of TMB substrate for 5 mins and stopped by adding 20 μL of 2N sulfuric acid. The plate was read at OD450 nm Biotek plate reader and then plotted in Prism 8.1 software.

[3] = target: T4, CD3 on CD3+ Jurkat T cells (Homo sapiens (Human), UniProt P07766 23-207); assay: FACS on CD3+ Jurkat cells, anti-His biotin/streptavidin Alexa Fluor 647, positive cell counts
T4 construct: also called CD3+ Jurkat cells
Method: as §1
A similarly FACS assay was performed to examine the binding activity of the exemplary bispecific anti-CD19/anti-CD3 antibodies to CD3+ Jurkat T cells, following the descriptions above.

[4] = target: T1, endogenous CD19 expressed on cell …; assay: FACS on Raji cells, anti-His biotin/streptavidin Alexa 647 detection
Method: as §1

[5] = target: T2, full-length human CD19 fused with flag …; assay: FACS on CD19/HEK293 cells, scFv titration, anti-His Alexa 488 detection
Method: The diluted samples were incubated with CD19-expressing HEK293 cells (CD19/HEK293 cells) in 96 wells plate on ice for 1 hour. Cells were spun down at 1200 rpm for 5 minutes at 4° C. to remove unbound antibodies. Cells were then washed once with 200 μL of full medium per well. Samples were mixed with an Alexa fluor 488-conjugated anti-His antibody (secondary antibody, 100 μL, 1:1000 diluted) and incubated at 4° C. for 30 minutes in dark. Samples were then spun down at 1200 rpm for 5 minutes at 4° C. and washed twice with 200 uL of 1×PBS per well. The resultant samples were reconstituted in 200 uL of 1×PBS and read on Guava EasyCyte. Analysis was done by counting only Alexa Fluor 488-positive cells and then plotted in Prism 8.1 software.

[6] = target: T2, full-length human CD19 fused with flag …; assay: FACS titration on CD19/HEK293 cells, anti-His Alexa Fluor 488, positive cell counts; 20 nM FMC63 IgG present as competitor
Method: Purified anti-CD19 scFv antibodies were titrated from 100 nM with 2-fold serial dilution. […] Cells were spun down at 1200 rpm for 5 minutes at 4° C. Samples were mixed with an Alexa fluor 488-conjugated anti-His antibody (100 uL, 1:1000 diluted) and incubated at 4° C. for 30 minutes in the dark. The samples were spun down at 1200 rpm for 5 minutes at 4° C. and washed twice with 200 μL of 1×PBS per well. The resultant samples were then reconstituted in 200 uL of 1×PBS and read on Guava EasyCyte. Analysis was done by counting only Alexa Fluor 488-positive cells and then plotted in Prism 8.1 software.

[7] = target: T1, endogenous CD19 expressed on cell …; assay: FACS on CD19+ Raji cells, BiTE serially diluted from 200 nM; CD19+ Raji cells, FACS
Method: as §1

T4 sequence (P07766 23-207 limits assumed): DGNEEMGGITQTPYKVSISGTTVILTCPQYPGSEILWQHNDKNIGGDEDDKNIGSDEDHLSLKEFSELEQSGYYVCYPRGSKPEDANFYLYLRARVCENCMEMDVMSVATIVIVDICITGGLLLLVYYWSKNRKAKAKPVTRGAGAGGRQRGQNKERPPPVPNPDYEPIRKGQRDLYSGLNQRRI
T3 sequence (P07766 23-126 limits assumed): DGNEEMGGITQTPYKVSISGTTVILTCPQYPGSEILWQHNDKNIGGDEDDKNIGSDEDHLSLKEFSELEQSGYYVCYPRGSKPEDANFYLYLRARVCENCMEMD

Molecule	EC50 (human CD3ε/Fc) [nM]	EC50 (read off the curve) [3] [nM]	% Raji cells stained positive [4] [%]	EC50 [5] [nM]	also measured
secondary antibody control	–	–	–	–	% Raji cells stained positive [1]: 1.3%
2018EP188-B10 (scFv, VH-VL orientation) (scFv, Purified from E. coli periplasmic expression; not shown: C-terminal flag and 6xHIS tag) scFv: QVQLVQSGGGVVQPGKSLRLSCAASGFPFSSYTMHWVRQPPGEGLEWVALISYDGRNLYYADSVKGRFTISRDNSYNSLYLQLSGLRAEDTALYYCARDINRDHFYGMDLWGPGTTVTVSSGGGGSGGGGSGGGGSSYELTQPPSVSVAPGQTARIPCGGTNIGSKGVHWYQQKPGQAPVLVIYYDHSRPSGIPERFSGSNSGNTAALTISRVEAGDEADYYCQVWEGTSDHPVFGGGTKLTVL	–	–	–	1.26	–
2018EP142-D09 (scFv, VH-VL orientation) (scFv, Purified from E. coli periplasmic expression; also called EP142-D9; not shown: C-terminal flag and 6xHIS tag) scFv: EVQLVESGAEVKKPGASVKVSCKASGYTFTSYYMHWVRQAPGQGLEWMGIINPSGGSTSYAQKFQGRVTITADESTSTAYMELSSLRSEDTAVYYCAREGGYKDFDYWGQGTLVTVSSGGGGSGGGGSGGGGSDIVMTQSPSSLSASVGDRVTVTCRASQSIDTYLNWYQQKPGKAPKLLIYTASTLQSGVPSRFSGSGSGTDFTLTISSLQPEDFATYYCQQSYSAPRTFGQGTKVEIK	–	–	–	7.18	–
2018EP187-A12 (scFv, VH-VL orientation) (scFv, Purified from E. coli periplasmic expression (pET22b); fully human scFv from mRNA display; also called 2018EP187-Al2; not shown: C-terminal flag and 6xHIS tag) scFv: QVQLQQWGAGLLKPSETLSLTCAVYGGSFSGYYWTWIRQPPGKGLEWIGEINHGGSSNYNPSLKSRVTISVDTSKKQFSLNLNSVTAADTAVYYCARGLGYRSGWYEVENAFDIWGQGTMVTVSSGGGGSGGGGSGGGGSQPVLTQPPSVSVAPGQTARITCGGNKIESRSVHWYQQKPGQAPVLVVYDDGARPSGIPERLSGSNSGDTATLTISRVEPGDEADYYCQVWDGSSVIFGGGTKLTVL	–	–	–	0.751	EC50 (read off the curve) [6]: 1.6 to 3 nM

Second part, led by results:

EC50 (human CD3ε/Fc) [nM]	EC50 (read off the curve) [3] [nM]	% Raji cells stained positive [4] [%]	EC50 [5] [nM]	Molecule	also measured
3.17	~0.8	~80	–	BiTE EP383 (bispecific antibody, also called anti-CD19/anti-CD3 BiTE antibody) EVQLVESGAEVKKPGASVKVSCKASGYTFTSYYMHWVRQAPGQGLEWMGIINPSGGSTSYAQKFQGRVTITADESTSTAYMELSSLRSEDTAVYYCAREGGYKDFDYWGQGTLVTVSSGGGGSGGGGSGGGGSDIVMTQSPSSLSASVGDRVTVTCRASQSIDTYLNWYQQKPGKAPKLLIYTASTLQSGVPSRFSGSGSGTDFTLTISSLQPEDFATYYCQQSYSAPRTFGQGTKVEIKGGGGSEVQLVESGGGLVQPGGSLRLSCAASGFTFSTYAMNWVRQAPGKGLEWVGRIRSKYNNYATYYADSVKGRFTISRDDSKNTLYLQMNSLRAEDTAVYYCVRHGNFGDSYVSWFAYWGQGTLVTVSSGGGGSGGGGSGGGGSGGGGSQAVVTQEPSLTVSPGGTVTLTCGSSTGAVTTSNYANWVQQKPGKSPRGLIGGTNKRAPGVPARFSGSLLGGKAALTISGAQPEDEADYYCALWYSNHWVFGGGTKLTVLHHHHHH	EC50 [2]: 0.846 nM
7.58	~4	~81.1	–	BiTE EP382 (bispecific antibody, also called anti-CD19/anti-CD3 BiTE antibody) QVQLVQSGGGVVQPGKSLRLSCAASGFPFSSYTMHWVRQPPGEGLEWVALISYDGRNLYYADSVKGRFTISRDNSYNSLYLQLSGLRAEDTALYYCARDINRDHFYGMDLWGPGTTVTVSSGGGGSGGGGSGGGGSSYELTQPPSVSVAPGQTARIPCGGTNIGSKGVHWYQQKPGQAPVLVIYYDHSRPSGIPERFSGSNSGNTAALTISRVEAGDEADYYCQVWEGTSDHPVFGGGTKLTVLGGGGSEVQLVESGGGLVQPGGSLRLSCAASGFTFSTYAMNWVRQAPGKGLEWVGRIRSKYNNYATYYADSVKGRFTISRDDSKNTLYLQMNSLRAEDTAVYYCVRHGNFGDSYVSWFAYWGQGTLVTVSSGGGGSGGGGSGGGGSGGGGSQAVVTQEPSLTVSPGGTVTLTCGSSTGAVTTSNYANWVQQKPGKSPRGLIGGTNKRAPGVPARFSGSLLGGKAALTISGAQPEDEADYYCALWYSNHWVFGGGTKLTVLHHHHHH	EC50 [2]: 3.81 nM
5.57	~0.8	~92.3	–	BiTE EP381 (bispecific antibody, also called anti-CD19/anti-CD3 BiTE antibody) QVQLQQWGAGLLKPSETLSLTCAVYGGSFSGYYWTWIRQPPGKGLEWIGEINHGGSSNYNPSLKSRVTISVDTSKKQFSLNLNSVTAADTAVYYCARGLGYRSGWYEVENAFDIWGQGTMVTVSSGGGGSGGGGSGGGGSQPVLTQPPSVSVAPGQTARITCGGNKIESRSVHWYQQKPGQAPVLVVYDDGARPSGIPERLSGSNSGDTATLTISRVEPGDEADYYCQVWDGSSVIFGGGTKLTVLGGGGSEVQLVESGGGLVQPGGSLRLSCAASGFTFSTYAMNWVRQAPGKGLEWVGRIRSKYNNYATYYADSVKGRFTISRDDSKNTLYLQMNSLRAEDTAVYYCVRHGNFGDSYVSWFAYWGQGTLVTVSSGGGGSGGGGSGGGGSGGGGSQAVVTQEPSLTVSPGGTVTLTCGSSTGAVTTSNYANWVQQKPGKSPRGLIGGTNKRAPGVPARFSGSLLGGKAALTISGAQPEDEADYYCALWYSNHWVFGGGTKLTVLHHHHHH	EC50 [7]: 0.766 nM
